# Results reported in patent publication US5621078.
# Biological target: epidermal growth factor receptor (Homo sapiens (Human)) (UniProt P00533)
substance,measurement,value
TGF-alpha - PE40 AB (ligand),A431 CELL KILLING EC50 pM,47 pM
